Test results taken from PMC11926245, “Structural recognition and stabilization of tyrosine hydroxylase by the J-domain protein DNAJC12” (Nature Communications, 2025).

Target: Tyrosine hydroxylase, wild-type (hTH1) (human) (UniProt P07101)
Assay: BLI; biotinylated TH or TH variant immobilised on streptavidin sensors; DNAJC12 or variant 0.01-4 μM in solution; PBS, 0.02% Tween-20, 0.5 mg/mL BSA, 25 °C; responses fitted to a one-site hyperbola

Sequence of DNAJC12(1-107) (Q9UKB3 1-107): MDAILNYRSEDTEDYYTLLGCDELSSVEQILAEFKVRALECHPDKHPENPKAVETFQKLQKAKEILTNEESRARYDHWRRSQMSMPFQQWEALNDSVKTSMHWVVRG

- Kd: 3.99 µM
Substance: DNAJC12(1-107) (from UniProt Q9UKB3-1 1-107) (domain or fragment)
